Source: patent US20190247312A1, “PHARMACEUTICAL PREPARATION FOR DELIVERY OF PEPTIDES AND PROTEINS” (priority 2016, published 2019)

Key:
[1] = in 0.01N HCl; cited from earlier work
[2] = system: blood glucose; assay: Blood glucose after dosing in STZ type I diabetes model (Example 3); type: in vivo, Sprague-Dawley(SD) rats; conditions: 5 IU/kg s.c. control
Method: Animals were monitored for blood glucose levels daily over 10 days using a handheld glucometer to verify the disruption of insulin production. […] Prior to the experimental procedure, animals were weighed and randomized into groups based on body weight. All rats were then fasted for five hours prior to dosing.
Control animals were given 5 IU/kg s.c. or 2.5 IU/kg i.v., while experimental animals were dosed orally with 50 IU/kg of microemulsion particles. Food was returned immediately post-dosage and blood was collected at the indicated time points (15, 30, 30, 60, 90, 120, 150, 180, 210, 240, 270, 300, 480, 720, and 1440) over a 24 hr. period. Whole blood was processed to plasma and analyzed for insulin quantity.
Mean insulin and glucose concentrations from the blood of animals were assessed following dosing of 5 IU/kg subcutaneous insulin, 50 IU/kg per os (p.o., i.e., orally) administered TA-3 (BCC with zinc), 50 IU/kg p.o. administered TA-4 (zinc without BCC), and 50 IU/kg p.o. administered TA-7 (BCC without zinc).

[3] = Pharmacokinetics of orally dosed insulin emulsion particles in STZ-treated rats (Example 3), plasma insulin; conditions: 5 IU/kg s.c. control
Excerpt: Parameters were estimated using Watson pharmacokinetic software 7.4.2 (Thermo Electron Corporation) using a non-compartmental approach consistent with the various routes of administration. All parameters were generated from Insulin individual animal concentrations in plasma. Parameters were estimated using nominal sampling times to be relative to the start of each dose administration (within an acceptable tolerance limit).
The area under the test item concentration versus time curve (AUC) was calculated using the linear-log linear trapezoidal method. AUC was not calculated for PK profiles with less than 3 consecutive quantifiable concentrations of test article at separate time points. When practical, the terminal elimination phase of each concentration versus time curve was identified using at least the final three observed concentration values. The slope of the terminal elimination phase was determined using linear regression on the unweighted concentration data. […] The parameters described below were reported to 3 significant figures.

[4] = system: blood glucose; assay: Blood glucose after dosing in STZ type I diabetes model (Example 5); type: in vivo, Sprague-Dawley(SD) rats; conditions: 5 IU/kg s.c. control

For insulin, the solubility [1] is given as 20 mg/mL, the “blood glucose after s.c. administration” value [2] is given as “corresponding declines in blood glucose” and the “blood insulin levels after s.c. administration” value [3] is given as “rapid appearance and peak of insulin in the blood”. The “blood glucose concentrations after s.c. injection” value [4] was “drop in blood glucose concentrations beginning just as insulin is detected in the blood”.
